Reference: the nanobody polyreactivity screen of Harvey et al. (2022)

Assay: yeast display, Sf9 membrane polyspecificity reagent, FACS + sequencing; frameworks hold sequencing errors
How it was run: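 Synthetic nanobody libraries on Saccharomyces cerevisiae BJ5465 were galactose-induced for 36–48 hours, stained 1 hour at 4 °C with 10% biotinylated, detergent-solubilized Sf9 membrane reagent and enriched on streptavidin microbeads. FACS then separated cells into low and high (top ~1%) gates by anti-HA (expression) and streptavidin (reagent binding) fluorescence. Genes were colony-PCR amplified, MiSeq 2 × 250 sequenced and CDR-length filtered. A clone's polyreactivity label is that of its gate of origin.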

Row | Sequence | polyreactivity (PSR sort gate)
1 | QVQLVESGGGLVQAGGSLRLSCAASGRTLSFYAMGWYRQAPGKERELVAAISRRGGSTYYADSVKGRFTISRDNAKNTVYLQMNSLKPEDTAVYYCAARRWYPYKNYDYWGQGTQVTVSS | high polyreactivity
2 | QVQLVQSGGGLVQAGGRLRLSCAASGRIFGFYAMGWYRQAPGKERELVAAITSTGRTYYADSVKGRFTISRDNAKNTVYLQMNSLKPEDTAVYYCAAGYGRADSGWVRMNYWGQGTQVTVSS | high polyreactivity
3 | QVQLVESGGGLVQAGGSLRLSCAASGRIFVYYAMGWYRQAPGKERELVAAIRWTGGSTYYADSVKGRFTISRDNAKNTVYLQMNSLKPEDTAVYYCATVNRYGHFNYWGQGTQVTVSS | high polyreactivity
4 | QVQLVESGGGLVQAGGSLRLSCAASGRTFQSYAMGWYRQAPGKERELVASITSGASTNYADSVKGRFTISRDNAKNTVYLQMNSLKPEDTAVYYCARRIGHGSRPYWLETWRYPYDYWGQGTQVTVSS | low polyreactivity
5 | QVQLVESGGGLVQAGGSLRLSCAASGSTFTAYAMGWYRQAPGKERELVAAISKRSGGTYYADSVKGRFTISRDNAKNTVYLQMNSLKPEDTAVYYCGQGTQVTVSS | low polyreactivity
6 | QVQLVESGGGLVQAGGSLRLSCAASGYIFDGNAMGWYRKAPGKERELVAPITWTGGSTYYADSVKGRFTISRDNAKNTVYLQMNSLKPEDTAVYYCAKPYDPGPYHSSYRATDDYWGQGTQVTVSS | low polyreactivity
7 | QVQLVESGGGLVQAGGSLRLSCAASGIIFGVNVMGWYRQAPGKERELVATITWRGDSTYYADSVKGRFTISRDNAKNTVYLQMNSLKPEDTAVYYCARGARTGVREDDYWGQGTQVTVSS | low polyreactivity
8 | QVQLVESGGGLVQAGGSLRLSCAASGFIFGGYAMGWYRQAHGKEREWVAAISRSGGSTYYADSVKGRFTISRDNAKNTVYLQMNSLKPEDTAVYYCNAVPRRQGFNYWGQGTQVTVSS | high polyreactivity
9 | QVQLVESGGGLVQAGGSLRLSCAASGSTFARYAMGWYRQAPGKERELVAAISKGGDRTYYADSVKGRFTISRDNAKNTVYLQMNSLKPEDTAVYYCAARYTPRRYYYWGQGTQVTVSS | high polyreactivity
10 | QVQLVESGGGIVQAGGSLRLSCAASGIIFPLYAMGWYRPAPGKERELVAAIRSTGGSTYYADSVKGRFTISRDNANNTVYLQMNSLKPEDTAVYYCNARQNRRQGNVGYWGQGTQVTVSS | low polyreactivity
11 | QVQLVESGGGLVQAGGSLRLSCAASGLIFQEYAMGWYRQAPGKERELVAAITSGDSTNYADSVKGRFTISRDNAKNTVYLQMNSLKPEDTAVYYCNVDEAYYFVGEDNYDYWGQGTQVTVSS | low polyreactivity
12 | QVQLVESGGGLVQAGGSLRLSCAATGSIFWVNGMGWYRQAPGKERELVAAITWSGGSTYYADSVKGRFTISRDNAKNTVYLQMNSLKPEDTAVYYCADYGQYYLWDGYGYWGQGTQVTVSS | low polyreactivity
13 | QVQLVESGGGLFQAGGSLRLSCAASGSIFFYNNMGWYRQAPGKERELVDAISASGGRTYYADSVKGRFTISRDNAKNSVYLQMYSLKPEDTAVYYCAVRVPYRGYTRYDYWGQGTQVTVSS | high polyreactivity
14 | QDQLVESGGGLDQAGGSLRLSCAASGSTFQLYAMGWYRQAPGKERELVAAISGIGDSTYYADSVKGRFTISRDNAKNTVYLQMNSLKPEDTAVYYCDREFSDGLSGKFDYWGQGTQVTVSS | low polyreactivity
15 | QVQLVESAGGLVQAGGSLRLSCAASGSTYTSYAMGWYRQAPGKERELVAAITRNGGTTYYADSVKGRFTLSRDNAKNTVYLQMNSLKPEDTAVYYCNAPHYYYITSDRRFDYWGQGTQVTVSS | low polyreactivity
16 | QVQLLESGGGLVQAGGSLRLSCAASGRTFYFYVMGWYRQAPGKERELVARISWSGGSTYYADSVKGRFTISRDNSKNTVYLQMNSLKPEDTAVYYCNTVDSIPIGSGLYYYWGQGTQVTVSS | low polyreactivity

Row | Sequence | polyreactivity (PSR sort gate)
17 | QVQLVESGGGLVQAGGSLRLSCAASGFIFLFYAMGWYRQAPGKERELVAAISSGVSTNYADSVKGRFTISRDNAKNTVYLQMNSLKPEDTAVYYCNTTQSTSLLYDYWGQGTQVTVSS | low polyreactivity
18 | QVHLVESGGGLVQAGGSLRLSCAASGFTFNGYAMGWYRQAPGKESEMVAGITRRGGITYYADSVKGRFTISRYNAKNTVYLQMNSLKPEETAVYYCARDYIGHALIHHASLYYYWGQGTQVTVSS | high polyreactivity
19 | QVHLVESGGGLVQSGGSLRLSCAATGNIFGRYAKGWYRQAPGKERELVAGISRGVSTSYADSVKGPFTISRDNAKNTVYLQMYSLKPDDTAVYYCTKRPWYLSDYWGQGTEVTVSS | low polyreactivity
20 | QVQLVESGGGLVQAGGSLRLSCAASGITFGRNTMGWYRQAPGKERELVAAIDSGGNTYADSVKGRFTISRDNAKNTVFLQMNSLKPEDTAVYYCAVDGGEFSSYGYWGQGTQVTVSS | low polyreactivity
21 | QVQLVESGGGLVQAGGSLRLSCAASGGIFKAYAMGWYRQAPGKERELVAVITIGGRTTYADSVKGRFTISRDNAKNTVYLQMNSLKPEDTAVYYCAKTNYNWLSTAEHDYWGQGTQVTVSS | low polyreactivity
22 | QVQLVESGGGLVQAGGSLRLSCAATGTFIIYAMGRYRQAPGKERELVATISTGGSTNYADSVKGRFTISRDNAKNTVYLQMNSLKPEDTAVYYCAAEWLYPHDGGYPRPMDYCGQGTQVTVSS | low polyreactivity
23 | QVQLVESGGGLVQAGGSLRLSCAASGFIFYKYAMGWYRQAPGKERELVAAISKRGGSTYYADSVKGRFTISRDNAKNTVYLQMNSLKPEDNAVYYCATVGGNSGTVRYFASDYWGQGTKVTVSS | high polyreactivity
24 | QVQLVESGGGLVHAGGRLRLSCDASGSLFFWNTMGWYRQAPGKQRQLVAAITVSGGRTYYADSVKGRFTISRDNAKNSFYLQMYSLKPEDTAVYYCAADPYRLYGYASYTYWGQGTQVTVSS | high polyreactivity
25 | QVQLVESGGGLVQAGGSLRLSCAASGSIFISNAMGWYRQAPGKERELVAAISRSGARTYYADSVKGRFTISRDNAKNTVYLQMNSLKPEDTAVYYCAVDGYSPYKYDYWGQGTQVTVSS | high polyreactivity
26 | QVQLVESGGGLVQAGGSLRLSSASSGFIFRGNAMVWSRQAPGKERELVAAISWSGGNTYYADSVKGRFTISRDYAKNTVYLQMNSMIPEDTAVYYCNGVKAYYRWFLPRYQYNFWGQGTQVTVSS | high polyreactivity
27 | QVQLVESGGGLVQAGGSLRLSCAASGRTFGTYAMGWYRQAPGKERELVAAISSGGSTYADSVKGRFTISRDNAKNTVYLQRNSLTPEETAVYYCNADFRARNYHYYPRRFKYYYWGQGTQVTVSS | high polyreactivity
28 | QVQLVESGGGLVQAGGSLRFSCAASGRTFYVYALGWYRQAPGKERELVARIRGRGGITFYADSVKGRFTISRDNAKNTVYLQMNSLKPEDTAVYYCAADFRSNYDYWGQGTQVTVAS | high polyreactivity
29 | QDQLVESGGGLVQAGGSLRLSFAASGATFKRYAMGWYRQAPGKERELVATINSGTSTNYADSVKGRFTISRDNAKNTVYLQMNSLKPEDTAVYYCAKTFRRSVGGYGYDYWGQGTQVTVSS | low polyreactivity
30 | QVQLVESGGGLVQAGGSLRLSCAASGRIFSGYAMGWYRQAPGKERELVAAITSVGSTNYADSVKGRFTISRDNAKYTVYLQMNSLKPEDTAVYYCAKDTGQGYYWGQGTQVTVSS | high polyreactivity
31 | QVQLVESGGGLVQAGGSLRLICAASGRILSYYAMGWYRQAPGKERELVATINSGGSTNYADSVKGRFTISRDNAKNTVYLEMNSLKPEDTAVYYCAASPVWWYEYWGQGTQVNVSS | low polyreactivity
32 | QVQLVESGGGLVQAGGSLRLSCAASGNIFVLYAMGWYRQAPGKERELVASITSDGITYYADSVKGRFTISRDNAKNTVYLQMNSLKPEDTAVYYCAVDRSYRYLPRGDYWGQGTQVTVSS | low polyreactivity
